# Experimental data published in FireProtDB (doi:10.1021/bi972642d).
# B1: Protein S100-G wild type, P02633 (protein)
# chain: MSAKKSPEELKGIFEKYAAKEGDPNQLSKEELKLLLQTEFPSLLKGPSTLDELFEELDKNGDGEVSFEEFQVLVKKISQ
# Conditions: Bos taurus; pH 7; 25 °C; Urea; CD; Potassium phosphate 10 mM; whole UniProt chain shown
protein,measurement,value
B1,denaturant m value,1.17 kcal/mol/M
same,denaturant midpoint (higher = more stable),5.6 M
same,unfolding free energy,6.55 kcal/mol
